PMC9917023 (2023)
Non-standard residues stand in square brackets, D forms with d. No end group written: not given here.

Tests used:
[1] = target: T1, full-length tau 441 (Homo sapiens, UniProt P10636); test: SPR
[2] = target: T2, tau R3 domain 304-336 (Homo sapiens, UniProt P10636); test: SPR
T2 chain: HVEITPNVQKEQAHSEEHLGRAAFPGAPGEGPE

[3] = target: T1, full-length tau 441; test: MST

T1 sequence (P10636 2-758): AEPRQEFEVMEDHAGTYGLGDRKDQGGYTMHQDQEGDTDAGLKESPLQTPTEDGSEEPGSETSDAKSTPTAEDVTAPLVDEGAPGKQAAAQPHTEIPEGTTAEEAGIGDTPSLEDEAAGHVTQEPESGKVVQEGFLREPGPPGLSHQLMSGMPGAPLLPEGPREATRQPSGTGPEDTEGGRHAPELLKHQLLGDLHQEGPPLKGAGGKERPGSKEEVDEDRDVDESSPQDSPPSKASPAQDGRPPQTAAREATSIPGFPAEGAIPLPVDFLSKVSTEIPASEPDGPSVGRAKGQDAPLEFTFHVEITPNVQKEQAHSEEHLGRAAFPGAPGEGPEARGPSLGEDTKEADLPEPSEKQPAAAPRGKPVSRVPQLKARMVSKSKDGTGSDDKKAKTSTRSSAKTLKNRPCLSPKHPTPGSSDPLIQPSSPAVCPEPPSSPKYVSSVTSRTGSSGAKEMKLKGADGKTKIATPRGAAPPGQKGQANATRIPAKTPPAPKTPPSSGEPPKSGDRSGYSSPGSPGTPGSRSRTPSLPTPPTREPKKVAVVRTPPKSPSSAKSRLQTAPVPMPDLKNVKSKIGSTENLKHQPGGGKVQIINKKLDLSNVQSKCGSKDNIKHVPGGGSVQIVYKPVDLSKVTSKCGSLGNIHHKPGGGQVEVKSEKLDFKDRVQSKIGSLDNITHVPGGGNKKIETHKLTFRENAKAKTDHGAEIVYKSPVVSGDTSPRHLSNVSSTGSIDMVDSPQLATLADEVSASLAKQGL

B1: TF2D-5a (peptide)
chain: [dD]GG[dY][dQ][dI][dL][dF][dK][dI][dP]GG[dH][dI][dH][dR][dR][dR][dR][dR]-NH2
modifications: N-terminus assumed
SMILES: CC[C@@H](C)[C@@H](NC(=O)[C@@H](Cc1c[nH]cn1)NC(=O)CNC(=O)CNC(=O)[C@H]1CCCN1C(=O)[C@H](NC(=O)[C@@H](CCCCN)NC(=O)[C@@H](Cc1ccccc1)NC(=O)[C@@H](CC(C)C)NC(=O)[C@H](NC(=O)[C@@H](CCC(N)=O)NC(=O)[C@@H](Cc1ccc(O)cc1)NC(=O)CNC(=O)CNC(=O)[C@H](N)CC(=O)O)[C@H](C)CC)[C@H](C)CC)C(=O)N[C@H](Cc1c[nH]cn1)C(=O)N[C@H](CCCNC(=N)N)C(=O)N[C@H](CCCNC(=N)N)C(=O)N[C@H](CCCNC(=N)N)C(=O)N[C@H](CCCNC(=N)N)C(=O)N[C@H](CCCNC(=N)N)C(N)=O
Kd [1]: 6.1 nM
Kd [2]: 0.007 nM

[dD]GG[dY][dQ][dI][dL][dF][dK][dI][dP]GG[dH][dI][dH]-NH2 (also: CF633 label, position not given here)
Kd [3]: 0.308 nM

B2: TF2D-5 (peptide)
chain: [dD]GG[dY][dQ][dI][dL][dF][dK][dI][dP]GG[dH][dI][dH]-NH2
modifications: N-terminus assumed
SMILES: CC[C@@H](C)[C@@H](NC(=O)[C@@H](Cc1c[nH]cn1)NC(=O)CNC(=O)CNC(=O)[C@H]1CCCN1C(=O)[C@H](NC(=O)[C@@H](CCCCN)NC(=O)[C@@H](Cc1ccccc1)NC(=O)[C@@H](CC(C)C)NC(=O)[C@H](NC(=O)[C@@H](CCC(N)=O)NC(=O)[C@@H](Cc1ccc(O)cc1)NC(=O)CNC(=O)CNC(=O)[C@H](N)CC(=O)O)[C@H](C)CC)[C@H](C)CC)C(=O)N[C@H](Cc1c[nH]cn1)C(N)=O
Kd [1]: 1.3 nM

[dD]GG[dY][dQ][dI][dL][dF][dK][dI][dP]GG[dH][dI][dH][dR][dR][dR][dR][dR]-NH2 (also: CF633 label, position not given here)
Kd [3]: 11.7 nM
